Sequences and labels used below:
B1: Hairpin Ribozyme (parent)
chain: GUCCUCUUUCACGUGCGCGUGAAAGAGAGAAGUGAACCAGAGAAACACACGUUGUGGUAUAUUACCUGGUA

In the series the parent is B1. Put plainly: self-cleavage, relative activity (ratio to wild type); higher = more cleavage; co-transcriptional.
For the variant U7G U14A, the self-cleavage was 0.666.

As for U7G U14G, the self-cleavage worked out at 0.729.

Consider U7G U14C, for which the self-cleavage came to 0.701.

On to U7C C16U, for which the self-cleavage was 1.

As to C6U G56A, the self-cleavage came out at 0.193.

On to U7G A28U, for which the self-cleavage is 0.498.

For the variant U7G G69C, the self-cleavage is 0.191.

Turning to U7G G69A, the self-cleavage worked out at 0.398.

As to U7G G69U, the self-cleavage was 0.166.

Turning to U8A A11G, the self-cleavage was 0.772.

On to U8A A11U, for which the self-cleavage stood at 0.619.

Turning to U7G C46A, the self-cleavage is 0.0994.

Turning to U8A G68C, the self-cleavage was 0.215.

For the variant C6U A43U, the self-cleavage amounted to 0.119.

For the variant U8A G27U, the self-cleavage worked out at 0.208.

Regarding C6U A30G, the self-cleavage is 0.128.

Consider C6U A30C, for which the self-cleavage came to 0.205.

Regarding U7G G15U, the self-cleavage amounted to 0.955.

With U7G A64C, the self-cleavage amounted to 0.24.

As for U7G A64U, the self-cleavage is 0.143.

On to U7A A36C, for which the self-cleavage turned out to be 0.573.

U7G U52G: the self-cleavage came out at 0.779.

On to U7C A47C, for which the self-cleavage is 0.205.

For U7C A47U, the self-cleavage came out at 0.0995.

For the variant U7G U9G, the self-cleavage turned out to be 0.599.

Turning to U7G U9A, the self-cleavage was 0.68.

Turning to U7A C46U, the self-cleavage was 0.159.

Turning to U7A C46G, the self-cleavage stood at 0.108.

In the case of U7C C12A, the self-cleavage worked out at 0.516.

For U7A U53G, the self-cleavage is 0.688.

Regarding U8C A11G, the self-cleavage was 0.458.

Consider U8A A28G, for which the self-cleavage was 0.684.

As to C6U U33G, the self-cleavage came out at 0.126.

As for C6U U20A, the self-cleavage turned out to be 0.764.

Turning to C6U U20C, the self-cleavage was determined as 0.806.

Consider U7A U55G, for which the self-cleavage was 0.205.

For the variant U7A U55C, the self-cleavage is 0.175.

On to U7A U55A, for which the self-cleavage is 0.152.

Regarding U7G A31U, the self-cleavage is 0.216.

On to U7G A31G, for which the self-cleavage came out at 0.503.

In the case of U7C G17C, the self-cleavage turned out to be 0.527.

Turning to U7G G34U, the self-cleavage came to 1.22.

Turning to U7A U58C, the self-cleavage came out at 1.02.

With U7A U58G, the self-cleavage came to 0.775.

Regarding U8A G17U, the self-cleavage was determined as 0.79.

As for U7C C18G, the self-cleavage was 0.732.

Take U7C C18U: the self-cleavage came to 1.06.

As to U7C C18A, the self-cleavage worked out at 0.973.

As to U7G A26C, the self-cleavage was 0.0432.

As for U7C A31C, the self-cleavage is 0.112.

U7G C66A: the self-cleavage turned out to be 0.205.

With U7C G19C, the self-cleavage was found to be 0.683.

As for U7C G19A, the self-cleavage worked out at 0.559.

Consider U7A C66G, for which the self-cleavage stood at 0.146.

For the variant U7A A41U, the self-cleavage worked out at 1.28.

For the variant U7G A39G, the self-cleavage was found to be 0.377.

Turning to U7G A39U, the self-cleavage was determined as 0.421.

As for C6U G51U, the self-cleavage was found to be 0.88.

Regarding U8A A43G, the self-cleavage worked out at 0.13.

U7A C18U: the self-cleavage was found to be 0.8.

As to U8A G15U, the self-cleavage was determined as 0.888.

Turning to U7A C16G, the self-cleavage turned out to be 0.779.

In the case of U7A C16U, the self-cleavage is 0.85.

For U7C G40C, the self-cleavage stood at 0.156.

For C6U C48G, the self-cleavage was 0.116.

As to U7A G54U, the self-cleavage is 0.589.

Turning to U8A C48G, the self-cleavage came out at 0.107.

With U8A C48A, the self-cleavage stood at 0.111.

Take U8A C48U: the self-cleavage was 0.117.

Consider U7C C65U, for which the self-cleavage worked out at 0.254.

Consider U8A G40A, for which the self-cleavage was found to be 0.235.

As to U7G G19A, the self-cleavage was 0.618.

Regarding U7G G56U, the self-cleavage is 0.0768.

Regarding U7G G42C, the self-cleavage is 0.316.

As to U7G U33C, the self-cleavage was 0.113.

Take U7G U33A: the self-cleavage is 0.131.

With U7A A49G, the self-cleavage is 0.49.

With U7A A49U, the self-cleavage was found to be 0.16.

C6U C50A: the self-cleavage came to 0.24.

As for C6U C50G, the self-cleavage was 0.299.

As to C6U C50U, the self-cleavage came to 0.386.

Regarding U8A A36U, the self-cleavage was determined as 0.473.

U8A A36G: the self-cleavage stood at 0.714.

With C6U C37G, the self-cleavage worked out at 0.372.

Take C6U G34A: the self-cleavage came to 0.863.

Regarding C6U G34C, the self-cleavage is 1.1.

For U7C A30G, the self-cleavage came to 0.0858.

With U8C A26G, the self-cleavage is 0.544.

With U8C A26C, the self-cleavage was determined as 0.316.

For the variant C6U G42C, the self-cleavage was determined as 0.342.

Turning to U7A G68U, the self-cleavage was found to be 0.238.

For the variant U8A U63G, the self-cleavage was determined as 0.117.

Turning to C6U G54U, the self-cleavage stood at 0.371.

As for C6U G54A, the self-cleavage was 0.59.

For U7C G54U, the self-cleavage is 0.242.

Consider U7C G54C, for which the self-cleavage is 0.683.

Turning to U7A G56A, the self-cleavage was 0.182.

Regarding U7G G25U, the self-cleavage came to 0.17.

Consider U7G G25C, for which the self-cleavage was determined as 0.253.

Turning to U7G G57U, the self-cleavage was 0.175.

On to U7C A41G, for which the self-cleavage is 0.845.

For U7C G51C, the self-cleavage was determined as 0.489.

Turning to U7C G51U, the self-cleavage was 1.1.

For the variant C6U U58C, the self-cleavage stood at 0.893.

Regarding C6U U58G, the self-cleavage amounted to 0.663.

As to U8A U52G, the self-cleavage was found to be 0.518.

For the variant U8A U52A, the self-cleavage was 0.658.

U7G A59C: the self-cleavage was found to be 0.0534.

U7G A61G: the self-cleavage amounted to 0.0998.

With C6U A35U, the self-cleavage was found to be 0.765.

Take U7G A45G: the self-cleavage was found to be 0.102.

Consider U7G A45C, for which the self-cleavage stood at 0.0973.

U7A A35G: the self-cleavage was determined as 0.796.

On to U7C A36C, for which the self-cleavage was determined as 0.679.

Regarding C6U A31U, the self-cleavage was found to be 0.101.

Consider U7G U53C, for which the self-cleavage amounted to 0.84.

Consider U8A A41U, for which the self-cleavage was 0.843.

As to U8A A41C, the self-cleavage is 0.82.

On to U7G U60C, for which the self-cleavage worked out at 1.12.

As for U7C G25U, the self-cleavage stood at 0.494.

As for U7C G25A, the self-cleavage came to 0.306.

Turning to U7C G57U, the self-cleavage was determined as 0.213.

With U7G G51A, the self-cleavage came to 0.891.

For the variant U7G C48G, the self-cleavage came out at 0.153.

Regarding U7C G34C, the self-cleavage is 1.37.

Turning to U7G U55G, the self-cleavage came out at 0.215.

For the variant U7C U20G, the self-cleavage worked out at 0.751.

U8C A28U: the self-cleavage came out at 0.693.

As for U8C A28C, the self-cleavage is 0.691.

For the variant U7A C50U, the self-cleavage amounted to 0.364.

As to U7G G21C, the self-cleavage worked out at 0.332.

In the case of C6U A44G, the self-cleavage came out at 0.132.

As to C6U A44C, the self-cleavage came out at 0.119.

Consider U7A A11U, for which the self-cleavage turned out to be 0.649.

Turning to U7A A11G, the self-cleavage is 0.855.

For the variant U7A G69A, the self-cleavage worked out at 0.315.

For the variant U7A G69C, the self-cleavage amounted to 0.196.

For U8A C66U, the self-cleavage worked out at 0.238.

Regarding U8A C66G, the self-cleavage was 0.101.

For U8A C66A, the self-cleavage amounted to 0.128.

Consider C6U C18U, for which the self-cleavage was 0.82.

For the variant C6U C18G, the self-cleavage is 0.775.

Consider C6U U70A, for which the self-cleavage came to 0.699.

Take C6U C65A: the self-cleavage was found to be 0.776.

For U7C U58C, the self-cleavage is 0.775.

Consider U7C G68A, for which the self-cleavage is 0.339.

For U7C G68U, the self-cleavage is 0.171.

For U7A A23C, the self-cleavage turned out to be 0.894.

In the case of U7A A26G, the self-cleavage was determined as 0.71.

Take U7A U33C: the self-cleavage was found to be 0.151.

Turning to U7A G17A, the self-cleavage stood at 0.865.

For the variant U8A U62G, the self-cleavage worked out at 0.123.

Regarding U7A U8G, the self-cleavage was found to be 0.925.

Turning to U8A A59G, the self-cleavage is 0.215.

For U8A A47G, the self-cleavage was 0.187.

Regarding C6U G40A, the self-cleavage was 0.344.

As to U8A A22U, the self-cleavage worked out at 0.891.

On to U8A A23C, for which the self-cleavage was 0.712.

Take U8A A23G: the self-cleavage worked out at 0.808.

In the case of U7A G40U, the self-cleavage was found to be 0.18.

U7A G40C: the self-cleavage stood at 0.166.

With U8A A44G, the self-cleavage was determined as 0.173.

In the case of U8A A44C, the self-cleavage was found to be 0.213.

For C6U G19U, the self-cleavage came out at 0.715.

Regarding C6U G13C, the self-cleavage came to 0.65.

C6U G13A: the self-cleavage is 0.712.

In the case of U7A C37G, the self-cleavage was determined as 0.342.

The values above are taken from the RNAGym collection of RNA variant scans (doi:10.7554/elife.80360).
